Source: publication PMC7979937, “Crystal structures of human MGST2 reveal synchronized conformational changes regulating catalysis” (Nature Communications, 2021)

Target: the molecule itself
Experiment: crystal structure; crystals grown in lipidic cubic phase (8.8 MAG for apo, 9.9 MAG for GSH and GSO3- complexes), protein at 30 mg/ml, 20 °C; apo, with 7 mM GSH, with 7 mM GSO3-; homo-trimer

B1: Microsomal glutathione S-transferase 2 (human) (enzyme)
chain: not shown
notes: Microsomal glutathione S-transferase 2 (MGST2), human; cDNA from IMAGE clone 5277851 cloned in pPICZA; Integral membrane protein, homo-trimer in the crystals; The terminal ends are disordered in the crystal structures; also called MGST2; apo-MGST2; source: Pichia pastoris KM71H, purified (Ni-Sepharose, S-hexylglutathione agarose, SEC) in DDM
- stoichiometry N: 3
